Measured values: ChEMBL document CHEMBL1145552, “Substrate specificity and diastereoselectivity of strictosidine glucosidase, a key enzyme in monoterpene indole alkaloid biosynthesis” (Bioorg Med Chem Lett, 2008)

Experiments:
[1] = molecular target: T1, Strictosidine beta-glucosidase (Catharanthus roseus) (UniProt Q9M7N7); assay: Ratio of relative Vmax to K0.5 of Catharanthus roseus strictosidine glucosidase
T1 sequence (whole entry): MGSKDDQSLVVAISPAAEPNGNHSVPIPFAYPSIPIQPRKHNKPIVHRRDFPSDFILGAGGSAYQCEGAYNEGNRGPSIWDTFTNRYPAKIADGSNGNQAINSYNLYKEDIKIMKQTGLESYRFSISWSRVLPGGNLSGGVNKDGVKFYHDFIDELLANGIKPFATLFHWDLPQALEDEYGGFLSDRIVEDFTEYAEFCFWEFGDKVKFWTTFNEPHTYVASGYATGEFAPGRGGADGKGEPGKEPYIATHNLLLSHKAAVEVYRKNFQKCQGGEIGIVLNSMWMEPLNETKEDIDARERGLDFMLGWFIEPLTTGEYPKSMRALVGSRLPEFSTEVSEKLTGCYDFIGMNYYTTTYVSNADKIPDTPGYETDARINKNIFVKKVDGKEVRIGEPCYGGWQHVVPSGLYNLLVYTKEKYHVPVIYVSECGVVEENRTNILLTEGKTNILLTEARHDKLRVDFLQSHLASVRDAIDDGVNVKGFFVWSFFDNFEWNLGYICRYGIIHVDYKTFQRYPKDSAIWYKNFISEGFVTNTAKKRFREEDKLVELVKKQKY

[2] = substrate: C=C[C@H]1[C@H](O[C@@H]2O[C@H](CO)[C@@H](O)[C@H](O)[C@H]2O)OC=C(C(=O)OC)[C@H]1C[C@@H]1NCCc2c1[nH]c1cccc(C)c21; assay: (§1) Activity of Catharanthus roseus strictosidine glucosidase
[3] = substrate: C=C[C@H]1[C@H](O[C@@H]2O[C@H](CO)[C@@H](O)[C@H](O)[C@H]2O)OC=C(C(=O)OC)[C@H]1C[C@@H]1NCCc2c1[nH]c1ccc(OC)cc21; assay: as §1
[4] = substrate: C=C[C@H]1[C@H](O[C@@H]2O[C@H](CO)[C@@H](O)[C@H](O)[C@H]2O)OC=C(C(=O)OC)[C@H]1C[C@@H]1NCCc2c1[nH]c1ccccc21; assay: as §1
[5] = substrate: C=C[C@H]1[C@H](O[C@@H]2O[C@H](CO)[C@@H](O)[C@H](O)[C@H]2O)OC=C(C(=O)OC)[C@H]1C[C@@H]1NCCc2c1[nH]c1cc(C)ccc21; assay: as §1
[6] = substrate: C=C[C@H]1[C@H](O[C@@H]2O[C@H](CO)[C@@H](O)[C@H](O)[C@H]2O)OC=C(C(=O)OC)[C@H]1C[C@@H]1NCCc2c1[nH]c1ccc(F)cc21; assay: as §1
[7] = substrate: C=C[C@H]1[C@H](O[C@@H]2O[C@H](CO)[C@@H](O)[C@H](O)[C@H]2O)OC=C(C(=O)OC)[C@H]1C[C@@H]1NCCc2c1[nH]c1cc(OC)ccc21; assay: as §1
[8] = substrate: C=C[C@H]1[C@H](O[C@@H]2O[C@H](CO)[C@@H](O)[C@H](O)[C@H]2O)OC=C(C(=O)OC)[C@H]1C[C@@H]1NCCc2c1[nH]c1cc(F)ccc21; assay: as §1
[9] = substrate: C=C[C@H]1[C@H](O[C@@H]2O[C@H](CO)[C@@H](O)[C@H](O)[C@H]2O)OC=C(C(=O)OC)[C@H]1C[C@@H]1NCCc2c1[nH]c1ccc(C)cc21; assay: as §1
[10] = substrate: C=C[C@H]1[C@H](O[C@@H]2O[C@H](CO)[C@@H](O)[C@H](O)[C@H]2O)OC=C(C(=O)OC)[C@H]1C[C@@H]1NCCc2c1[nH]c1c(C)cccc21; assay: as §1

C=C[C@H]1[C@H](O[C@@H]2O[C@H](CO)[C@@H](O)[C@H](O)[C@H]2O)OC=C(C(=O)OC)[C@H]1C[C@@H]1NCCc2c1[nH]c1cc(OC)ccc21
Ratio [1]: 0.2 min⁻¹

C=C[C@H]1[C@H](O[C@@H]2O[C@H](CO)[C@@H](O)[C@H](O)[C@H]2O)OC=C(C(=O)OC)[C@H]1C[C@@H]1NCCc2c1[nH]c1ccc(OC)cc21
Ratio [1]: 0.3 min⁻¹

C=C[C@H]1[C@H](O[C@@H]2O[C@H](CO)[C@@H](O)[C@H](O)[C@H]2O)OC=C(C(=O)OC)[C@H]1C[C@@H]1NCCc2c1[nH]c1cc(C)ccc21
Ratio [1]: 0.5 min⁻¹

C=C[C@H]1[C@H](O[C@@H]2O[C@H](CO)[C@@H](O)[C@H](O)[C@H]2O)OC=C(C(=O)OC)[C@H]1C[C@@H]1NCCc2c1[nH]c1ccc(F)cc21
Ratio [1]: 0.7 min⁻¹

C=C[C@H]1[C@H](O[C@@H]2O[C@H](CO)[C@@H](O)[C@H](O)[C@H]2O)OC=C(C(=O)OC)[C@H]1C[C@@H]1NCCc2c1[nH]c1cc(F)ccc21
Ratio [1]: 0.7 min⁻¹

C=C[C@H]1[C@H](O[C@@H]2O[C@H](CO)[C@@H](O)[C@H](O)[C@H]2O)OC=C(C(=O)OC)[C@H]1C[C@@H]1NCCc2c1[nH]c1c(C)cccc21
Ratio [1]: 0.3 min⁻¹

C=C[C@H]1[C@H](O[C@@H]2O[C@H](CO)[C@@H](O)[C@H](O)[C@H]2O)OC=C(C(=O)OC)[C@H]1C[C@@H]1NCCc2c1[nH]c1cccc(C)c21
Ratio [1]: 0.2 min⁻¹

C=C[C@H]1[C@H](O[C@@H]2O[C@H](CO)[C@@H](O)[C@H](O)[C@H]2O)OC=C(C(=O)OC)[C@H]1C[C@@H]1NCCc2c1[nH]c1ccccc21
Ratio [1]: 1 min⁻¹

C=C[C@H]1[C@H](O[C@@H]2O[C@H](CO)[C@@H](O)[C@H](O)[C@H]2O)OC=C(C(=O)OC)[C@H]1C[C@@H]1NCCc2c1[nH]c1ccc(C)cc21
Ratio [1]: 0.6 min⁻¹

B1: Strictosidine beta-glucosidase (Catharanthus roseus), Q9M7N7 (protein)
chain: MGSKDDQSLVVAISPAAEPNGNHSVPIPFAYPSIPIQPRKHNKPIVHRRDFPSDFILGAGGSAYQCEGAYNEGNRGPSIWDTFTNRYPAKIADGSNGNQAINSYNLYKEDIKIMKQTGLESYRFSISWSRVLPGGNLSGGVNKDGVKFYHDFIDELLANGIKPFATLFHWDLPQALEDEYGGFLSDRIVEDFTEYAEFCFWEFGDKVKFWTTFNEPHTYVASGYATGEFAPGRGGADGKGEPGKEPYIATHNLLLSHKAAVEVYRKNFQKCQGGEIGIVLNSMWMEPLNETKEDIDARERGLDFMLGWFIEPLTTGEYPKSMRALVGSRLPEFSTEVSEKLTGCYDFIGMNYYTTTYVSNADKIPDTPGYETDARINKNIFVKKVDGKEVRIGEPCYGGWQHVVPSGLYNLLVYTKEKYHVPVIYVSECGVVEENRTNILLTEGKTNILLTEARHDKLRVDFLQSHLASVRDAIDDGVNVKGFFVWSFFDNFEWNLGYICRYGIIHVDYKTFQRYPKDSAIWYKNFISEGFVTNTAKKRFREEDKLVELVKKQKY
Km [2]: 220 µM
Vmax [2]: 0.018 mM/min
Km [3]: 370 µM
Vmax [3]: 0.035 mM/min
Km [4]: 220 µM
Vmax [4]: 0.078 mM/min
Km [5]: 92 µM
Vmax [5]: 0.017 mM/min
Km [6]: 150 µM
Vmax [6]: 0.038 mM/min
Km [7]: 430 µM
Vmax [7]: 0.037 mM/min
Km [8]: 120 µM
Vmax [8]: 0.032 mM/min
Km [9]: 71 µM
Vmax [9]: 0.016 mM/min
Km [10]: 140 µM
Vmax [10]: 0.016 mM/min
